From patent US20210246166A1 (Bayer, published 2021)
Bridge positions count the residues as written; N and C are the ends. Square brackets hold non-standard residues; d marks the D form. Ends that are not written are not given here. Pro(cis-4-CF3) = O=C(O)[C@@H]1C[C@H](C(F)(F)F)CN1; Oic = O=C(O)[C@@H]1C[C@@H]2CCCC[C@@H]2N1; PEG8 = NCCOCCOCCOCCOCCOCCOCCOCCOCCC(=O)O; Phe(2-Br) = N[C@@H](Cc1ccccc1Br)C(=O)O; tBuAla = CC(C)(C)C[C@H](N)C(=O)O; Chg = N[C@H](C(=O)O)C1CCCCC1; Pen = CC(C)(S)[C@H](N)C(=O)O; NMeC = CN[C@@H](CS)C(=O)O; Orn = NCCC[C@H](N)C(=O)O; Abu = CC[C@H](N)C(=O)O; Sar = CNCC(=O)O

T1: recombinant rat MASP1 active protease (amino acids 302-704, C-terminal His Tag) (rat, UniProt Q8CHN8 302-704)
T1 sequence: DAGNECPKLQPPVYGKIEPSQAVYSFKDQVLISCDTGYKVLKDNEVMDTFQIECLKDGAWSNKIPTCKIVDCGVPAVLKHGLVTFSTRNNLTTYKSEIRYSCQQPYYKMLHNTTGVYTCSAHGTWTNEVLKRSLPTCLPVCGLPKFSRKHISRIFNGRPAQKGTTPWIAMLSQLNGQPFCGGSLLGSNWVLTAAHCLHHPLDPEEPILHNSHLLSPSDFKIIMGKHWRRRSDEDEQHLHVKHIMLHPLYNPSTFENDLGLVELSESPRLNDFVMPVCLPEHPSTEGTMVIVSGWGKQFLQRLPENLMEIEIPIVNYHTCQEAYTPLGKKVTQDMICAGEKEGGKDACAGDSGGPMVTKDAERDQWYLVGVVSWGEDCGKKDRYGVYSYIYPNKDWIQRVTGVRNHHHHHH


target: T1, recombinant rat MASP1 active protease …; assay: cell-based or functional assay

Binder	rat MASP1 IC50 [nM]
LICSRS[tBuAla]PPI[NMeC]I-NH2 (disulfide 3-11; N-terminus assumed; SMILES CC[C@H](C)[C@H](NC(=O)[C@@H]1CSSC[C@H](NC(=O)[C@@H](NC(=O)[C@@H](N)CC(C)C)[C@@H](C)CC)C(=O)N[C@@H](CO)C(=O)N[C@@H](CCCNC(=N)N)C(=O)N[C@@H](CO)C(=O)N[C@@H](CC(C)(C)C)C(=O)N2CCC[C@H]2C(=O)N2CCC[C@H]2C(=O)N[C@@H]([C@@H](C)CC)C(=O)N1C)C(N)=O) [Example 65: LIC+SRS-((tBu)A)-PPI-((N-Me)C)+I-NH2]	7.2
[Abu]ICSRS[tBuAla]PPICIPD-NH2 (disulfide 3-11; N-terminus assumed; SMILES CC[C@H](N)C(=O)N[C@H](C(=O)N[C@H]1CSSC[C@@H](C(=O)N[C@H](C(=O)N2CCC[C@H]2C(=O)N[C@@H](CC(=O)O)C(N)=O)[C@@H](C)CC)NC(=O)[C@H]([C@@H](C)CC)NC(=O)[C@@H]2CCCN2C(=O)[C@@H]2CCCN2C(=O)[C@H](CC(C)(C)C)NC(=O)[C@H](CO)NC(=O)[C@H](CCCNC(=N)N)NC(=O)[C@H](CO)NC1=O)[C@@H](C)CC) [Example 66: (Abu)-IC+SRS-((tBu)A)-PPIC+IPD-NH2]	70
[Sar]ICSRS[tBuAla]PPI[Pen]IP-{PEG4‑CH2CO2H (15 atoms)-NH2} (disulfide 3-11) [Example 73: ((N-Me)G)-IC+SRS-((tBu)A)-PPI-(Pen)+IP-(PEG4-CH2CO2H (15 atoms))-NH2]	43
[Sar]ICSRS[tBuAla]PPI[Pen]IP-{PEG8-NH2} (disulfide 3-11) [Example 74: ((N-Me)G)-IC+SRS-((tBu)A)-PPI-(Pen)+IP-(PEG8(28 atoms))-NH2]	71
[Orn]ICSRS[tBuAla]PPI[NMeC]IPD-NH2 (disulfide 3-11; N-terminus assumed; SMILES CC[C@H](C)[C@H](NC(=O)[C@@H](N)CCCN)C(=O)N[C@H]1CSSC[C@@H](C(=O)N[C@H](C(=O)N2CCC[C@H]2C(=O)N[C@@H](CC(=O)O)C(N)=O)[C@@H](C)CC)N(C)C(=O)[C@H]([C@@H](C)CC)NC(=O)[C@@H]2CCCN2C(=O)[C@@H]2CCCN2C(=O)[C@H](CC(C)(C)C)NC(=O)[C@H](CO)NC(=O)[C@H](CCCNC(=N)N)NC(=O)[C@H](CO)NC1=O) [Example 77: (Orn)-IC+SRS-((tBu)A)-PPI-((N-Me)C)+IPD-NH2]	66
[Orn]ICSRS[tBuAla]PPI[NMeC]IPD-NH2 (disulfide 3-11; also: HCl salt) [Example 78: (Orn)-IC+SRS-((tBu)A)-PPI-((N-Me)C)+IPD-NH2 (HCl salt)]	48
KICSRS[tBuAla]PPI[NMeC]I-NH2 (disulfide 3-11; N-terminus assumed; SMILES CC[C@H](C)[C@H](NC(=O)[C@@H]1CSSC[C@H](NC(=O)[C@@H](NC(=O)[C@@H](N)CCCCN)[C@@H](C)CC)C(=O)N[C@@H](CO)C(=O)N[C@@H](CCCNC(=N)N)C(=O)N[C@@H](CO)C(=O)N[C@@H](CC(C)(C)C)C(=O)N2CCC[C@H]2C(=O)N2CCC[C@H]2C(=O)N[C@@H]([C@@H](C)CC)C(=O)N1C)C(N)=O) [Example 79: KIC+SRS-((tBu)A)-PPI-((N-Me)C)+I-NH2]	85
AICSRS[tBuAla]PPI[NMeC]IPD-OH (disulfide 3-11; N-terminus assumed; SMILES CC[C@H](C)[C@H](NC(=O)[C@H](C)N)C(=O)N[C@H]1CSSC[C@@H](C(=O)N[C@H](C(=O)N2CCC[C@H]2C(=O)N[C@@H](CC(=O)O)C(=O)O)[C@@H](C)CC)N(C)C(=O)[C@H]([C@@H](C)CC)NC(=O)[C@@H]2CCCN2C(=O)[C@@H]2CCCN2C(=O)[C@H](CC(C)(C)C)NC(=O)[C@H](CO)NC(=O)[C@H](CCCNC(=N)N)NC(=O)[C@H](CO)NC1=O) [Example 86: AIC+SRS-((tBu)A)-PPI-((N-Me)C)+IPD-OH]	16
AICSRS[tBuAla]PPI[Pen]IPD-NH2 (disulfide 3-11; N-terminus assumed; SMILES CC[C@H](C)[C@H](NC(=O)[C@H](C)N)C(=O)N[C@H]1CSSC(C)(C)[C@@H](C(=O)N[C@H](C(=O)N2CCC[C@H]2C(=O)N[C@@H](CC(=O)O)C(N)=O)[C@@H](C)CC)NC(=O)[C@H]([C@@H](C)CC)NC(=O)[C@@H]2CCCN2C(=O)[C@@H]2CCCN2C(=O)[C@H](CC(C)(C)C)NC(=O)[C@H](CO)NC(=O)[C@H](CCCNC(=N)N)NC(=O)[C@H](CO)NC1=O) [Example 98: AIC+SRS-((tBu)A)-PPI-(Pen)+IPD-NH2]	17
AICSRS[tBuAla]P[Oic]ICI-NH2 (disulfide 3-11; N-terminus assumed; SMILES CC[C@H](C)[C@H](NC(=O)[C@@H]1CSSC[C@H](NC(=O)[C@@H](NC(=O)[C@H](C)N)[C@@H](C)CC)C(=O)N[C@@H](CO)C(=O)N[C@@H](CCCNC(=N)N)C(=O)N[C@@H](CO)C(=O)N[C@@H](CC(C)(C)C)C(=O)N2CCC[C@H]2C(=O)N2[C@@H](C[C@@H]3CCCC[C@@H]32)C(=O)N[C@@H]([C@@H](C)CC)C(=O)N1)C(N)=O) [Example 99: AIC+SRS-((tBu)A)-P-(Oic)-IC+I-NH2]	220
AICSRSLP[rel‑(1R,3R,5R,6R)‑6‑(Trifluoromethyl)‑2‑azabicyclo(3.1.0)hexane‑3‑carboxylic acid]ICIPD-NH2 (disulfide 3-11)	140
SICSRS[tBuAla]PPI[NMeC]I-NH2 (disulfide 3-11; N-terminus assumed; SMILES CC[C@H](C)[C@H](NC(=O)[C@@H]1CSSC[C@H](NC(=O)[C@@H](NC(=O)[C@@H](N)CO)[C@@H](C)CC)C(=O)N[C@@H](CO)C(=O)N[C@@H](CCCNC(=N)N)C(=O)N[C@@H](CO)C(=O)N[C@@H](CC(C)(C)C)C(=O)N2CCC[C@H]2C(=O)N2CCC[C@H]2C(=O)N[C@@H]([C@@H](C)CC)C(=O)N1C)C(N)=O) [Example 103: SIC+SRS-((tBu)A)-PPI-((N-Me)C)+I-NH2]	110
AICSRS[Phe(2-Br)]PPI[Pen]IPD-NH2 (disulfide 3-11; N-terminus assumed; SMILES CC[C@H](C)[C@H](NC(=O)[C@H](C)N)C(=O)N[C@H]1CSSC(C)(C)[C@@H](C(=O)N[C@H](C(=O)N2CCC[C@H]2C(=O)N[C@@H](CC(=O)O)C(N)=O)[C@@H](C)CC)NC(=O)[C@H]([C@@H](C)CC)NC(=O)[C@@H]2CCCN2C(=O)[C@@H]2CCCN2C(=O)[C@H](Cc2ccccc2Br)NC(=O)[C@H](CO)NC(=O)[C@H](CCCNC(=N)N)NC(=O)[C@H](CO)NC1=O) [Example 104: AIC+SRS-((2-Bromo)F)-PPI-(Pen)+IPD-NH2]	77
AICSRS[tBuAla]P[Oic]I[Pen]IPD-NH2 (disulfide 3-11; N-terminus assumed; SMILES CC[C@H](C)[C@H](NC(=O)[C@H](C)N)C(=O)N[C@H]1CSSC(C)(C)[C@@H](C(=O)N[C@H](C(=O)N2CCC[C@H]2C(=O)N[C@@H](CC(=O)O)C(N)=O)[C@@H](C)CC)NC(=O)[C@H]([C@@H](C)CC)NC(=O)[C@@H]2C[C@@H]3CCCC[C@@H]3N2C(=O)[C@@H]2CCCN2C(=O)[C@H](CC(C)(C)C)NC(=O)[C@H](CO)NC(=O)[C@H](CCCNC(=N)N)NC(=O)[C@H](CO)NC1=O) [Example 108: AIC+SRS-((tBu)A)-P-(Oic)-I-(Pen)+IPD-NH2]	11
AICSRSLP[Oic]I[NMeC]IP-NH2 (disulfide 3-11; N-terminus assumed; SMILES CC[C@H](C)[C@H](NC(=O)[C@H](C)N)C(=O)N[C@H]1CSSC[C@@H](C(=O)N[C@H](C(=O)N2CCC[C@H]2C(N)=O)[C@@H](C)CC)N(C)C(=O)[C@H]([C@@H](C)CC)NC(=O)[C@@H]2C[C@@H]3CCCC[C@@H]3N2C(=O)[C@@H]2CCCN2C(=O)[C@H](CC(C)C)NC(=O)[C@H](CO)NC(=O)[C@H](CCCNC(=N)N)NC(=O)[C@H](CO)NC1=O) [Example 123: AIC+SRSLP-(Oic)-I-((N-Me)C)+IP-NH2]	59
AICSRS[tBuAla]P[Pro(cis-4-CF3)]I[NMeC]IPD-NH2 (disulfide 3-11; N-terminus assumed; SMILES CC[C@H](C)[C@H](NC(=O)[C@H](C)N)C(=O)N[C@H]1CSSC[C@@H](C(=O)N[C@H](C(=O)N2CCC[C@H]2C(=O)N[C@@H](CC(=O)O)C(N)=O)[C@@H](C)CC)N(C)C(=O)[C@H]([C@@H](C)CC)NC(=O)[C@@H]2C[C@H](C(F)(F)F)CN2C(=O)[C@@H]2CCCN2C(=O)[C@H](CC(C)(C)C)NC(=O)[C@H](CO)NC(=O)[C@H](CCCNC(=N)N)NC(=O)[C@H](CO)NC1=O) [Example 128: AIC+SRS-((tBu)A)-P-((4-CF3)P)-I-((N-Me)C)+IPD-NH2]	35
HICSRS[tBuAla]PPI[NMeC]I-NH2 (disulfide 3-11; N-terminus assumed; SMILES CC[C@H](C)[C@H](NC(=O)[C@@H]1CSSC[C@H](NC(=O)[C@@H](NC(=O)[C@@H](N)Cc2c[nH]cn2)[C@@H](C)CC)C(=O)N[C@@H](CO)C(=O)N[C@@H](CCCNC(=N)N)C(=O)N[C@@H](CO)C(=O)N[C@@H](CC(C)(C)C)C(=O)N2CCC[C@H]2C(=O)N2CCC[C@H]2C(=O)N[C@@H]([C@@H](C)CC)C(=O)N1C)C(N)=O) [Example 154: HIC+SRS-((tBu)A)-PPI-((N-Me)C)+I-NH2]	72
[Abu]ICSRSLPP[Chg]CIPD-NH2 (disulfide 3-11; N-terminus assumed; SMILES CC[C@H](N)C(=O)N[C@H](C(=O)N[C@H]1CSSC[C@@H](C(=O)N[C@H](C(=O)N2CCC[C@H]2C(=O)N[C@@H](CC(=O)O)C(N)=O)[C@@H](C)CC)NC(=O)[C@H](C2CCCCC2)NC(=O)[C@@H]2CCCN2C(=O)[C@@H]2CCCN2C(=O)[C@H](CC(C)C)NC(=O)[C@H](CO)NC(=O)[C@H](CCCNC(=N)N)NC(=O)[C@H](CO)NC1=O)[C@@H](C)CC) [Example 169: (Abu)-IC+SRSLPP-(Chg)-C+IPD-NH2]	370
